From US20030099969A1 (published 2003)
Values belong to the binder of their own block, whether it stands above or below them.

Columns and labels:
Ipaf 1-661 = target: T1, Ipaf 1-661
T1 chain: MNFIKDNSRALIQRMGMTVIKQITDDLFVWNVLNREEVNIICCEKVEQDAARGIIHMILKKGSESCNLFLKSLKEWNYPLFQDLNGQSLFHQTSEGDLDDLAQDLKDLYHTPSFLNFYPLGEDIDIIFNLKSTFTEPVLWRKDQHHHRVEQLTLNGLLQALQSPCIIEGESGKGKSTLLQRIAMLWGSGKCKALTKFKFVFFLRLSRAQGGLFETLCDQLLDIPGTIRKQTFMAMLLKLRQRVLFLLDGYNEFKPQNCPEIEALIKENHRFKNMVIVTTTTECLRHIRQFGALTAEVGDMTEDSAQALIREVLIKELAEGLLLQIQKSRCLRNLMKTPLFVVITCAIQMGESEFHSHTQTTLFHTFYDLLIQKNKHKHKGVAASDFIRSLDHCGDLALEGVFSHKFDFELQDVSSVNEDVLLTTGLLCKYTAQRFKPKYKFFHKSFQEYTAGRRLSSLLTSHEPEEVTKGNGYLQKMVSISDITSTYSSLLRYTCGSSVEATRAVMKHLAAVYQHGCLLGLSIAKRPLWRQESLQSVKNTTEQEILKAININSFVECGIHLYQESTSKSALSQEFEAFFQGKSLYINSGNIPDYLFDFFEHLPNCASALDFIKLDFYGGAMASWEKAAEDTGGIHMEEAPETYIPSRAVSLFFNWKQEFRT

[1] = target: T2, T7-tagged full length Ipaf
T2 chain: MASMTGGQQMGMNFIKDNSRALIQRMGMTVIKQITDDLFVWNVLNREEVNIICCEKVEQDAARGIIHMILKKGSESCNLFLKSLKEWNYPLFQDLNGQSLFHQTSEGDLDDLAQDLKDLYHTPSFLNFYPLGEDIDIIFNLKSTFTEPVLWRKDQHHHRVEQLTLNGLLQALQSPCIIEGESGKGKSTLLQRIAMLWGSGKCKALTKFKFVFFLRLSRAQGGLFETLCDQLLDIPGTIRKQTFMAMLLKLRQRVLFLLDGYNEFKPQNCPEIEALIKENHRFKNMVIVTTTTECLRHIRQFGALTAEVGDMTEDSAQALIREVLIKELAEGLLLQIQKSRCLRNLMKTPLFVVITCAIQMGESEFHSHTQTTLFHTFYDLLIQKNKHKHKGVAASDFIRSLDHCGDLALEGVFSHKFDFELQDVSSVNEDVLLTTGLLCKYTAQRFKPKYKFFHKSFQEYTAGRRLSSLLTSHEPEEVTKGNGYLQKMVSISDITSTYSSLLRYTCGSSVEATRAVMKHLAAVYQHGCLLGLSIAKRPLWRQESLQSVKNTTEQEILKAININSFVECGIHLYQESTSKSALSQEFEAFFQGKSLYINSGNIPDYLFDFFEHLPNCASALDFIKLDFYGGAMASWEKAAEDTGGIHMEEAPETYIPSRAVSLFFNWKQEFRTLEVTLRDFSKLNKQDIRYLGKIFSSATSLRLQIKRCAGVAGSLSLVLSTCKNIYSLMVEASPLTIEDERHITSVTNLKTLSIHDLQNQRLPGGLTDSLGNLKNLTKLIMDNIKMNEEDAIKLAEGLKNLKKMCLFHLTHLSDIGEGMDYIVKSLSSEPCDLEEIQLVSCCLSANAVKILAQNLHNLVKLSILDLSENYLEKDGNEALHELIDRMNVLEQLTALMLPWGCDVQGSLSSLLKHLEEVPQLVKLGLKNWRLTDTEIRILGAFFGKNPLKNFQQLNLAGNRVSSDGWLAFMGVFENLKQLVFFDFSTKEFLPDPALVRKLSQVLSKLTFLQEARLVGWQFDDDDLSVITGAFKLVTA

[2] = target: T3, T7-tagged full length Ipaf (human, UniProt Q9NPP4 1-1024); test: co-immunoprecipitation from 293T lysates (IP anti-Flag, blot anti-T7)
T3 construct: also called T7-Ipaf; T7-tagged Ipaf
Description: 24 hours following transfection, cells were lysed in 50 mM Tris/HCl pH 7.6, 150 mM NaCl containing 0.5% NP-40, 10 μg.ml⁻¹ leupeptin and aprotinin and 0.1 mM PMSF and clarified by centrifugation at 15,000 g for 15 min. The clarified lysates were preabsorbed on protein G-Sepharose (Pharmacia) and then incubated with anti-FLAG-M5 monoclonal antibody (Eastman Kodak Co.) for 2 hours, followed by protein G-Sepharose agarose IgG beads. Immune complexes were washed extensively in the lysis buffer and eluted by boiling in an SDS sample buffer. The eluted proteins were resolved by SDS-PAGE and detected by Western analysis with a horseradish peroxidase-conjugate T7-antibody (Novagen). GST Pull-down assays were performed as described (Ahmad et al., Cancer Res 57:615-9, 1997).
24 hours following transfection, cells were lysed and the lysates immunoprecipitated (IP) with an anti-Flag antibody. The immunoprecipitates were immunoblotted (IB) with an anti-T7 antibody. Expression of T7-Ipaf or Flag-tagged constructs was determined by immunoblotting (IB) with anti-T7 or anti-Flag antibodies, respectively. […] This association was dependent on the N-terminal CARD as deletion of this domain prevented the CARD-truncated Ipaf mutant from interacting with the full-length Ipaf. Moreover, the epitope-tagged CARD of Ipaf was able to co-immunoprecipitate the full-length protein.

B1: N-terminally Flag-tagged procaspase-1 (protein)
chain: DYKDDDDKMADKVLKEKRKLFIRSMGEGTINGLLDELLQTRVLNKEEMEKVKRENATVMDKTRALIDSVIPKGAQACQICITYICEEDSYLAGTLGLSADQTSGNYLNMQDSQGVLSSFPAPQAVQDNPAMPTSSGSEGNVKLCSLEEAQRIWKQKSAEIYPIMDKSSRTRLALIICNEEFDSIPRRTGAEVDITGMTMLLQNLGYSVDVKKNLTASDMTTELEAFAHRPEHKTSDSTFLVFMSHGIREGICGKKHSEQVPDILQLNAIFNMLNTKNCPSLKDKPKVIIIQACRGDSPGVVWFKDSVGVSGNLSLPTTEEFEDDAIKKAHIEKDFIAFCSSTPDNVSWRHPTMGSVFIGRLIEHMQEYACSCDVEEIFRKVRFSFEQPDGRAQMPTTERVTLTRCFYLFPGH
- proteolytic activation (processing) of procaspase-1, anti-Flag immunoblot of 293T lysates (Ipaf 1-661): Co-expression of the LRR-truncated Ipaf mutant, but not the full-length protein, was able to induce proteolytic activation of procaspase-1
- proteolytic activation (processing) of procaspase-1, anti-Flag immunoblot of 293T lysates [1]: Co-expression of the LRR-truncated Ipaf mutant, but not the full-length protein, was able to induce proteolytic activation of procaspase-1

- binding result [2]: no binding
B2: Flag-tagged CARD-deleted mutant (residues 80-1024) of Ipaf (other)
chain: DYKDDDDKLFQDLNGQSLFHQTSEGDLDDLAQDLKDLYHTPSFLNFYPLGEDIDIIFNLKSTFTEPVLWRKDQHHHRVEQLTLNGLLQALQSPCIIEGESGKGKSTLLQRIAMLWGSGKCKALTKFKFVFFLRLSRAQGGLFETLCDQLLDIPGTIRKQTFMAMLLKLRQRVLFLLDGYNEFKPQNCPEIEALIKENHRFKNMVIVTTTTECLRHIRQFGALTAEVGDMTEDSAQALIREVLIKELAEGLLLQIQKSRCLRNLMKTPLFVVITCAIQMGESEFHSHTQTTLFHTFYDLLIQKNKHKHKGVAASDFIRSLDHCGDLALEGVFSHKFDFELQDVSSVNEDVLLTTGLLCKYTAQRFKPKYKFFHKSFQEYTAGRRLSSLLTSHEPEEVTKGNGYLQKMVSISDITSTYSSLLRYTCGSSVEATRAVMKHLAAVYQHGCLLGLSIAKRPLWRQESLQSVKNTTEQEILKAININSFVECGIHLYQESTSKSALSQEFEAFFQGKSLYINSGNIPDYLFDFFEHLPNCASALDFIKLDFYGGAMASWEKAAEDTGGIHMEEAPETYIPSRAVSLFFNWKQEFRTLEVTLRDFSKLNKQDIRYLGKIFSSATSLRLQIKRCAGVAGSLSLVLSTCKNIYSLMVEASPLTIEDERHITSVTNLKTLSIHDLQNQRLPGGLTDSLGNLKNLTKLIMDNIKMNEEDAIKLAEGLKNLKKMCLFHLTHLSDIGEGMDYIVKSLSSEPCDLEEIQLVSCCLSANAVKILAQNLHNLVKLSILDLSENYLEKDGNEALHELIDRMNVLEQLTALMLPWGCDVQGSLSSLLKHLEEVPQLVKLGLKNWRLTDTEIRILGAFFGKNPLKNFQQLNLAGNRVSSDGWLAFMGVFENLKQLVFFDFSTKEFLPDPALVRKLSQVLSKLTFLQEARLVGWQFDDDDLSVITGAFKLVTA
notes: also called Flag-?CARD Ipag; CARD-truncated Ipaf mutant
